These results are taken from patent publication US20220041702A1 (Innovent, published 2022).

Assay [1] deals with T1, human OX40 expressed on the surface of cells (CHO cells overexpressing human OX40) (human, UniProt P43489 29-277).
T1 construct: whole, on cells; also called CHO-OX40 cells; CHO cells overexpressing OX40
T1 sequence (looked up): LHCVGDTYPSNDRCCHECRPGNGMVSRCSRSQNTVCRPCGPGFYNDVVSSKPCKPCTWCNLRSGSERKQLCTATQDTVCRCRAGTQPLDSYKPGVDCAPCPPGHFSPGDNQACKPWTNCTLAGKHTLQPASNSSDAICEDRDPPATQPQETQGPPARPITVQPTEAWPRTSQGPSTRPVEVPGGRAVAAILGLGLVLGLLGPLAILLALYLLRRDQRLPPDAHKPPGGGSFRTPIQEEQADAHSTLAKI
Kind of assay: FACS on CHO-OX40 cells, PE anti-human Fc.

In a further assay the target is T2, human OX40-his (human, UniProt P43489 29-216).
T2 construct: Bought soluble protein
T2 sequence (looked up): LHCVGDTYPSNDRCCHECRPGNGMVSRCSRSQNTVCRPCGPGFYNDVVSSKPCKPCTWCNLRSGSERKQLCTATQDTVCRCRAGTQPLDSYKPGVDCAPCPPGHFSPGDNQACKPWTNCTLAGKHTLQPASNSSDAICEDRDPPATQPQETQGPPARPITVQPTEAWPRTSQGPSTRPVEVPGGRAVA
Nature of the assay: ForteBio Octet BLI, antibody on AHC tip, human OX40-His 100 nM in solution, monovalent. As for the experimental part: A ForteBio affinity assay was performed according to the method reported in the literature (Estep, P, et al., High throughput solution Based measurement of antibody-antigen affinity and epitope binning MAbs, 2013, 5(2): p. 270-278). Briefly, the AHC sensor (Pall, Catalog No.: 1506091) was immersed in a SD buffer (PBS 1×, BSA 0.1%, Tween 20 0.05%) and equilibrated at room temperature, half an hour before the experiment. […] The anti-human IgG Fc biosensor AHC was immersed in each well containing the antibody solution, and immersed at room temperature for 600 s to load the samples. The sensor was then washed in the SD buffer until it returned to the baseline, and then immersed in a well containing 100 μL of the antigen solution to monitor the binding of the antibody to the antigen. The sensor was then transferred to a well containing 100 μL of the SD buffer to monitor the antibody dissociation. The rotation speed was 400 rpm and the temperature was 30° C. The background-corrected association and dissociation curves were fitted by the Octet analysis software (ForteBio) to generate the binding rate constant (kₒₙ) and dissociation rate constant (kdis), which are then used to calculate the equilibrium dissociation constant (KD).

In assay [2] the target is T3, GITR expressed on cell surface (CHO cells overexpressing GITR) (Homo sapiens (Human), UniProt Q9Y5U5 26-241).
T3 construct: also called GITR on cell surface
T3 sequence: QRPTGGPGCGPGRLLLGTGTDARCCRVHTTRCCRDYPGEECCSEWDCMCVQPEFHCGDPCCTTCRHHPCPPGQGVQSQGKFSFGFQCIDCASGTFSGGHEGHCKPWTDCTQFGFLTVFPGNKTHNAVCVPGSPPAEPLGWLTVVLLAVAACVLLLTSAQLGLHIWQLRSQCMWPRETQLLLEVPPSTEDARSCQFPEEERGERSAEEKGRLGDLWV
Kind of assay: FACS on CHO cells overexpressing GITR, PE-conjugated anti-human Fc detection.

One may read the EC50 as the concentration at which the effect is half-maximal. High values mean lower potency in that assay, low ones higher potency in that assay. As usually defined, the Kd is the constant that tells how readily two partners part at equilibrium. A high value points to weaker binding. A word on the koff: it is the first-order rate constant of dissociation. By kon is commonly meant a measure of how fast the partners come together. A high value points to faster complex formation.

B1: anti-OX40 antibody ADI-20112 (antibody, human IgG1, kappa, V domains shown)
VH: QVQLVESGGGVVQPGRSLRLSCAASGFTFSSYGMHWVRQAPGKGLEWVAVISYDGSNKYYADSVKGRFTISRDNSKNTLYLQMNSLRAEDTAVYYCARGRPWYSETGTSAFDIWGQGTMVTVSS
VL: DIQMTQSPSSLSASVGDRVTITCQASQDISNYLNWYQQKPGKAPKLLIYDASNLETGVPSRFSGSGSGTDFTFTISSLQPEDIATYYCQQSDHYPTFGGGTKVEIKR
notes: also called parent anti-OX40 antibody
On to B1, for which, in assay [1], the response was half-maximal at 2.19 nM (EC50). Further, in the assay with human OX40-his, the Kd is 215 nM, the koff is 0.029 s⁻¹ and the kon was found to be 135000 M⁻¹ s⁻¹.

B2: IgG1 control antibody (antibody, V domains shown)
VH: EVRLLESGGGLVQPGGSLRLSCAASGFTFSNYAMGWVRQAPGKGLEWVSAISGSGGSTYYADSVKGRFTTSRDDSKNALYLQMNSLRAEDTAVYYCARGGPGWYAADVWGQGTTVTVSS
VL: DIQMTQSPSSLSASVGDRVTITCRASQSISSYLNWYQQKPGKAPKLLIYAASSLQSGVPSRFSGSGSGTDFTLTISSLQPEDFATYYCQQADLPAFAFGGGTKVEIKR
notes: Negative control; also called IgG1 negative control
Take B2: the binding result in assay [2] was “no binding”.
